# Source: IntAct's records for PubMed 31515488
# B1: SHC-transforming protein 1 (Homo sapiens), P29353 (parent)
# chain: MDLLPPKPKYNPLRNESLSSLEEGASGSTPPEELPSPSASSLGPILPPLPGDDSPTTLCSFFPRMSNLRLANPAGGRPGSKGEPGRAADDGEGIVGAAMPDSGPLPLLQDMNKLSGGGGRRTRVEGGQLGGEEWTRHGSFVNKPTRGWLHPNDKVMGPGVSYLVRYMGCVEVLQSMRALDFNTRTQVTREAISLVCEAVPGAKGATRRRKPCSRPLSSILGRSNLKFAGMPITLTVSTSSLNLMAADCKQIIANHHMQSISFASGGDPDTAEYVAYVAKDPVNQRACHILECPEGLAQDVISTIGQAFELRFKQYLRNPPKLVTPHDRMAGFDGSAWDEEEEEPPDHQYYNDFPGKEPPLGGVVDMRLREGAAPGAARPTAPNAQTPSHLGATLPVGQPVGGDPEVRKQMPPPPPCPGRELFDDPSYVNVQNLDKARQAVGGAGPPNPAINGSAPRDLFDMKPFEDALRVPPPPQSVSMAEQLRGEPWFHGKLSRREAEALLQLNGDFLVRESTTTPGQYVLTGLQSGQPKHLLLVDPEGVVRTKDHRFESVSHLISYHMDNHLPIISAGSELCLQQPVERKL
# partner: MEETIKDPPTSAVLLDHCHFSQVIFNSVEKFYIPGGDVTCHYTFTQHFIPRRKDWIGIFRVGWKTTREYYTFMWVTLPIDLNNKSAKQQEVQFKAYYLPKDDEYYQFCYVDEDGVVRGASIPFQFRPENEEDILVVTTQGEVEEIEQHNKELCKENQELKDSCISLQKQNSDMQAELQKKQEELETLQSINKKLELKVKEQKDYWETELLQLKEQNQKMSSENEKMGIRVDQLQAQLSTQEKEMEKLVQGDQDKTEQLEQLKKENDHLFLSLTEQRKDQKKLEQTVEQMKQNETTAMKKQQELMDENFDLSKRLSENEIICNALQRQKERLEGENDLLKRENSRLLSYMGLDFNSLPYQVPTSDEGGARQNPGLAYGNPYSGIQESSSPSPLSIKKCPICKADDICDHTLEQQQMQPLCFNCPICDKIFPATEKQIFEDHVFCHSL
# B2: Tuftelin-interacting protein 11 (Homo sapiens), Q9UBB9 (parent)
# chain: MSLSHLYRDGEGRIDDDDDERENFEITDWDLQNEFNPNRQRHWQTKEEATYGVWAERDSDDERPSFGGKRARDYSAPVNFISAGLKKGAAEEAELEDSDDEEKPVKQDDFPKDFGPRKLKTGGNFKPSQKGFAGGTKSFMDFGSWERHTKGIGQKLLQKMGYVPGRGLGKNAQGIINPIEAKQRKGKGAVGAYGSERTTQSMQDFPVVDSEEEAEEEFQKELSQWRKDPSGSKKKPKYSYKTVEELKAKGRISKKLTAPQKELSQVKVIDMTGREQKVYYSYSQISHKHNVPDDGLPLQSQQLPQSGKEAKAPGFALPELEHNLQLLIDLTEQEIIQNDRQLQYERDMVVNLFHELEKMTEVLDHEERVISNLSKVLEMVEECERRMQPDCSNPLTLDECARIFETLQDKYYEEYRMSDRVDLAVAIVYPLMKEYFKEWDPLKDCTYGTEIISKWKSLLENDQLLSHGGQDLSADAFHRLIWEVWMPFVRNIVTQWQPRNCDPMVDFLDSWVHIIPVWILDNILDQLIFPKLQKEVENWNPLTDTVPIHSWIHPWLPLMQARLEPLYSPIRSKLSSALQKWHPSDSSAKLILQPWKDVFTPGSWEAFMVKNIVPKLGMCLGELVINPHQQHMDAFYWVIDWEGMISVSSLVGLLEKHFFPKWLQVLCSWLSNSPNYEEITKWYLGWKSMFSDQVLAHPSVKDKFNEALDIMNRAVSSNVGAYMQPGARENIAYLTHTERRKDFQYEAMQERREAENMAQRGIGVAASSVPMNFKDLIETKAEEHNIVFMPVIGKRHEGKQLYTFGRIVIYIDRGVVFVQGEKTWVPTSLQSLIDMAK
# partner: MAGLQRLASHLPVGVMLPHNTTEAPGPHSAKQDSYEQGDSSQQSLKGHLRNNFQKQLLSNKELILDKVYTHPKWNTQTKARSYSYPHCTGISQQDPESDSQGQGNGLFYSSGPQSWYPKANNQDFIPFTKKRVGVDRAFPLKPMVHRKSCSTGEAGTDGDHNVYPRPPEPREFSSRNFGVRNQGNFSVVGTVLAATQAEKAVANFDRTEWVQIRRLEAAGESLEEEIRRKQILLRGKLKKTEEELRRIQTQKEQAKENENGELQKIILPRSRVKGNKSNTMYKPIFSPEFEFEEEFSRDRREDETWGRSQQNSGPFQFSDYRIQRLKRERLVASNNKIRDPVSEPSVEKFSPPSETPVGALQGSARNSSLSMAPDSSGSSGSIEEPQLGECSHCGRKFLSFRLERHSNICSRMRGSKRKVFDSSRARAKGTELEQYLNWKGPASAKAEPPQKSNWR
# B3: Migration and invasion-inhibitory protein (Homo sapiens), Q5JXC2 (parent)
# chain: MVEAEELAQLRLLNLELLRQLWVGQDAVRRSVARAASESSLESSSSYNSETPSTPETSSTSLSTSCPRGRSSVWGPPDACRGDLRDVARSGVASLPPAKCQHQESLGRPRPHSAPSLGTSSLRDPEPSGRLGDPGPQEAQTPRSILAQQSKLSKPRVTFSEESAVPKRSWRLRPYLGYDWIAGSLDTSSSITSQPEAFFSKLQEFRETNKEECICSHPEPQLPGLRESSGSGVEEDHECVYCYRVNRRLFPVPVDPGTPCRLCRTPRDQQGPGTLAQPAHVRVSIPLSILEPPHRYHIHRRKSFDASDTLALPRHCLLGWDIFPPKSEKSSAPRNLDLWSSVSAEAQHQKLSGTSSPFHPASPMQMLPPTPTWSVPQVPRPHVPRQKP
# partner: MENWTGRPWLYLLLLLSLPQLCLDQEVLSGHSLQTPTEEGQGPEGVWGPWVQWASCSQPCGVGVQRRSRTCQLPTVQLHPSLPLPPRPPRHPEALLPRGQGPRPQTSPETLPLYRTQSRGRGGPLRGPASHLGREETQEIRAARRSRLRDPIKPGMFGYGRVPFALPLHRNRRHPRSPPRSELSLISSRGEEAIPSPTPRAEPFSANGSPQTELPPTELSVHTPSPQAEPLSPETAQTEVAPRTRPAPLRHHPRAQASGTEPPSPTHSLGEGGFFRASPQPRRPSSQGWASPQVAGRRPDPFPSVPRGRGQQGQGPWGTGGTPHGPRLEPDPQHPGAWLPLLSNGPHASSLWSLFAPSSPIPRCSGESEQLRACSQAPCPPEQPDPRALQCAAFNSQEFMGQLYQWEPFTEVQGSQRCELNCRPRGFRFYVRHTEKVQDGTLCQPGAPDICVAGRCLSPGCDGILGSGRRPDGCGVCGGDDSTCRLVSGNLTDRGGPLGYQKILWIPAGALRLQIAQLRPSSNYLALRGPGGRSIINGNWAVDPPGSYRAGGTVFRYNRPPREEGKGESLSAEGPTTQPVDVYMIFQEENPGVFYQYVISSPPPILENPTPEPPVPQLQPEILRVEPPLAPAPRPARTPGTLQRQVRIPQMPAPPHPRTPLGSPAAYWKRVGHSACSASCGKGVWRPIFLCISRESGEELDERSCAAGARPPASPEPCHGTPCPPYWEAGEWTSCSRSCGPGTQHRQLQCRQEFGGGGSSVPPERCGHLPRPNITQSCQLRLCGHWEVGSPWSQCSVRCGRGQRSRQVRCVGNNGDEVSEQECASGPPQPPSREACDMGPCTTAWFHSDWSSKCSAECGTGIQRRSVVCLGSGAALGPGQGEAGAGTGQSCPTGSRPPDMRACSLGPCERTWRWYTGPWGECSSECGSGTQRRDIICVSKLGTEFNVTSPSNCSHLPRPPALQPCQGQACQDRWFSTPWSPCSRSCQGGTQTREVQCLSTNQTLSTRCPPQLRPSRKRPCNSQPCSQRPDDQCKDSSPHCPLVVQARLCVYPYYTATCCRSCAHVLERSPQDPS
# Variants of: B1
# Details: with caco2_human CALCOCO2, Q13137
row,effect of a mutation on the interaction,Variant
1,with no effect,M410V
2,with no effect,R369Q

# Variants of: B2
# Details: with zc21c_human ZC2HC1C
row,effect of a mutation on the interaction,Variant
1,with no effect,R8Q
2,with no effect,S688L

# Variants of: B3
# Details: with atl4_human ADAMTSL4, Q6UY14
row,effect of a mutation on the interaction,Variant
1,with no effect,R171C
